The chains are these.
B1: Pistol ribozyme (parent)
chain: GGGUCGUUGUUCCAUAAUCGCGUGGAUAUGGCACGCAAGUUUCUACCGGGCACCGUAAAUGUCCGACUGGAGCCGUUCGGGCGGCUAUAAACAGACCUCAGGCCCGAAGCGUGGCGGCACCUGCCGCCGGUGGUAAAAAAGAUCGGAAGAGCACACGUCU

The text below walks through data of the RNAGym collection of RNA variant scans (doi:10.1021/acssynbio.7b00057).

Variants of B1 are the subject of the data set. Kind of data set: aptazyme ON/OFF ratio, guanine; higher = stronger switching; co-transcriptional cleavage with and without guanine.
For GGGUCGGUCUUCAAUAAUCGCGUGGAUAUGGCACGCAAGUUUCUACCGGGCACCGUAAAUGUCCGACUGGAGCCGUUCGGGCGGCUAUAAACAGACCUCAGGCCCGAAGCGUGGCGGCACCUGCCGCCGGUGGUAAAAAAGAUCGGAAGAGCACACGUCU, the “aptazyme ON/OFF ratio” value amounted to 1.29.

Take GGGUCGUGUUCAGAUAAUCGCGUGGAUAUGGCACGCAAGUUUCUACCGGGCACCGUAAAUGUCCGACUGGAGCCGUUCGGGCGGCUAUAAACAGACCUCAGGCCCGAAGCGUGGCGGCACCUGCCGCCGGUGGUAAAAAAGAUCGGAAGAGCACACGUCU: the “aptazyme ON/OFF ratio” value was 1.08.

On to GGGUCGGAUCGUUAUAAUCGCGUGGAUAUGGCACGCAAGUUUCUACCGGGCACCGUAAAUGUCCGACUGGAGCCGUUCGGGCGGCUAUAAACAGACCUCAGGCCCGAAGCGUGGCGGCACCUGCCGCCGGUGGUAAAAAAGAUCGGAAGAGCACACGUCU, for which the “aptazyme ON/OFF ratio” value came out at 1.19.

Consider GGGUCGUCGACUGAUAAUCGCGUGGAUAUGGCACGCAAGUUUCUACCGGGCACCGUAAAUGUCCGACUGGAGCCGUUCGGGCGGCUAUAAACAGACCUCAGGCCCGAAGCGUGGCGGCACCUGCCGCCGGUGGUAAAAAAGAUCGGAAGAGCACACGUCU, for which the “aptazyme ON/OFF ratio” value came to 1.07.

As for GGGUCGAGUUCUGAUAAUCGCGUGGAUAUGGCACGCAAGUUUCUACCGGGCACCGUAAAUGUCCGACUGGAGCCGUUCGGGCGGCUAUAAACAGACCUCAGGCCCGAAGCGUGGCGGCACCUGCCGCCGGUGGUAAAAAAGAUCGGAAGAGCACACGUCU, the “aptazyme ON/OFF ratio” value is 1.15.

Take GGGUCGUUUGGCAAUAAUCGCGUGGAUAUGGCACGCAAGUUUCUACCGGGCACCGUAAAUGUCCGACUGGAGCCGUUCGGGCGGCUAUAAACAGACCUCAGGCCCGAAGCGUGGCGGCACCUGCCGCCGGUGGUAAAAAAGAUCGGAAGAGCACACGUCU: the “aptazyme ON/OFF ratio” value is 1.25.

GGGUCGGCCUGUCAUAAUCGCGUGGAUAUGGCACGCAAGUUUCUACCGGGCACCGUAAAUGUCCGACUGGAGCCGUUCGGGCGGCUAUAAACAGACCUCAGGCCCGAAGCGUGGCGGCACCUGCCGCCGGUGGUAAAAAAGAUCGGAAGAGCACACGUCU: the “aptazyme ON/OFF ratio” value came to 1.66.

Turning to GGGUCGUCCAUGUAUAAUCGCGUGGAUAUGGCACGCAAGUUUCUACCGGGCACCGUAAAUGUCCGACUGGAGCCGUUCGGGCGGCUAUAAACAGACCUCAGGCCCGAAGCGUGGCGGCACCUGCCGCCGGUGGUAAAAAAGAUCGGAAGAGCACACGUCU, the “aptazyme ON/OFF ratio” value worked out at 1.2.

Regarding GGGUCGUUGUUAGAUAAUCGCGUGGAUAUGGCACGCAAGUUUCUACCGGGCACCGUAAAUGUCCGACUGGAGCCGUUCGGGCGGCUAUAAACAGACCUCAGGCCCGAAGCGUGGCGGCACCUGCCGCCGGUGGUAAAAAAGAUCGGAAGAGCACACGUCU, the “aptazyme ON/OFF ratio” value was 1.27.

GGGUCGAGCGGAGAUAAUCGCGUGGAUAUGGCACGCAAGUUUCUACCGGGCACCGUAAAUGUCCGACUGGAGCCGUUCGGGCGGCUAUAAACAGACCUCAGGCCCGAAGCGUGGCGGCACCUGCCGCCGGUGGUAAAAAAGAUCGGAAGAGCACACGUCU: the “aptazyme ON/OFF ratio” value came to 1.16.

Turning to GGGUCGUGUGGGGAUAAUCGCGUGGAUAUGGCACGCAAGUUUCUACCGGGCACCGUAAAUGUCCGACUGGAGCCGUUCGGGCGGCUAUAAACAGACCUCAGGCCCGAAGCGUGGCGGCACCUGCCGCCGGUGGUAAAAAAGAUCGGAAGAGCACACGUCU, the “aptazyme ON/OFF ratio” value is 1.17.

Turning to GGGUCGGAAGUAGAUAAUCGCGUGGAUAUGGCACGCAAGUUUCUACCGGGCACCGUAAAUGUCCGACUGGAGCCGUUCGGGCGGCUAUAAACAGACCUCAGGCCCGAAGCGUGGCGGCACCUGCCGCCGGUGGUAAAAAAGAUCGGAAGAGCACACGUCU, the “aptazyme ON/OFF ratio” value was found to be 1.06.

GGGUCGUAUGGGGAUAAUCGCGUGGAUAUGGCACGCAAGUUUCUACCGGGCACCGUAAAUGUCCGACUGGAGCCGUUCGGGCGGCUAUAAACAGACCUCAGGCCCGAAGCGUGGCGGCACCUGCCGCCGGUGGUAAAAAAGAUCGGAAGAGCACACGUCU: the “aptazyme ON/OFF ratio” value stood at 1.32.

On to GGGUCGCCUAAUAAUAAUCGCGUGGAUAUGGCACGCAAGUUUCUACCGGGCACCGUAAAUGUCCGACUGGAGCCGUUCGGGCGGCUAUAAACAGACCUCAGGCCCGAAGCGUGGCGGCACCUGCCGCCGGUGGUAAAAAAGAUCGGAAGAGCACACGUCU, for which the “aptazyme ON/OFF ratio” value stood at 1.09.

With GGGUCGUCGGCGAAUAAUCGCGUGGAUAUGGCACGCAAGUUUCUACCGGGCACCGUAAAUGUCCGACUGGAGCCGUUCGGGCGGCUAUAAACAGACCUCAGGCCCGAAGCGUGGCGGCACCUGCCGCCGGUGGUAAAAAAGAUCGGAAGAGCACACGUCU, the “aptazyme ON/OFF ratio” value came out at 1.18.

For the variant GGGUCGUAGAGGAAUAAUCGCGUGGAUAUGGCACGCAAGUUUCUACCGGGCACCGUAAAUGUCCGACUGGAGCCGUUCGGGCGGCUAUAAACAGACCUCAGGCCCGAAGCGUGGCGGCACCUGCCGCCGGUGGUAAAAAAGAUCGGAAGAGCACACGUCU, the “aptazyme ON/OFF ratio” value came out at 1.06.

As for GGGUCGGGGAUACAUAAUCGCGUGGAUAUGGCACGCAAGUUUCUACCGGGCACCGUAAAUGUCCGACUGGAGCCGUUCGGGCGGCUAUAAACAGACCUCAGGCCCGAAGCGUGGCGGCACCUGCCGCCGGUGGUAAAAAAGAUCGGAAGAGCACACGUCU, the “aptazyme ON/OFF ratio” value came to 1.28.

Turning to GGGUCGUCCGGUCAUAAUCGCGUGGAUAUGGCACGCAAGUUUCUACCGGGCACCGUAAAUGUCCGACUGGAGCCGUUCGGGCGGCUAUAAACAGACCUCAGGCCCGAAGCGUGGCGGCACCUGCCGCCGGUGGUAAAAAAGAUCGGAAGAGCACACGUCU, the “aptazyme ON/OFF ratio” value is 1.09.

With GGGUCGAGACGAUAUAAUCGCGUGGAUAUGGCACGCAAGUUUCUACCGGGCACCGUAAAUGUCCGACUGGAGCCGUUCGGGCGGCUAUAAACAGACCUCAGGCCCGAAGCGUGGCGGCACCUGCCGCCGGUGGUAAAAAAGAUCGGAAGAGCACACGUCU, the “aptazyme ON/OFF ratio” value was found to be 1.28.

GGGUCGCUUUUGAAUAAUCGCGUGGAUAUGGCACGCAAGUUUCUACCGGGCACCGUAAAUGUCCGACUGGAGCCGUUCGGGCGGCUAUAAACAGACCUCAGGCCCGAAGCGUGGCGGCACCUGCCGCCGGUGGUAAAAAAGAUCGGAAGAGCACACGUCU: the “aptazyme ON/OFF ratio” value is 1.11.

On to GGGUCGAGCGGCGAUAAUCGCGUGGAUAUGGCACGCAAGUUUCUACCGGGCACCGUAAAUGUCCGACUGGAGCCGUUCGGGCGGCUAUAAACAGACCUCAGGCCCGAAGCGUGGCGGCACCUGCCGCCGGUGGUAAAAAAGAUCGGAAGAGCACACGUCU, for which the “aptazyme ON/OFF ratio” value was 1.21.

Take GGGUCGCAGCUAUAUAAUCGCGUGGAUAUGGCACGCAAGUUUCUACCGGGCACCGUAAAUGUCCGACUGGAGCCGUUCGGGCGGCUAUAAACAGACCUCAGGCCCGAAGCGUGGCGGCACCUGCCGCCGGUGGUAAAAAAGAUCGGAAGAGCACACGUCU: the “aptazyme ON/OFF ratio” value was 1.24.

For the variant GGGUCGAGACUGUAUAAUCGCGUGGAUAUGGCACGCAAGUUUCUACCGGGCACCGUAAAUGUCCGACUGGAGCCGUUCGGGCGGCUAUAAACAGACCUCAGGCCCGAAGCGUGGCGGCACCUGCCGCCGGUGGUAAAAAAGAUCGGAAGAGCACACGUCU, the “aptazyme ON/OFF ratio” value turned out to be 1.17.

As to GGGUCGUGGAAGCAUAAUCGCGUGGAUAUGGCACGCAAGUUUCUACCGGGCACCGUAAAUGUCCGACUGGAGCCGUUCGGGCGGCUAUAAACAGACCUCAGGCCCGAAGCGUGGCGGCACCUGCCGCCGGUGGUAAAAAAGAUCGGAAGAGCACACGUCU, the “aptazyme ON/OFF ratio” value was 1.14.

Consider GGGUCGAAGACGAAUAAUCGCGUGGAUAUGGCACGCAAGUUUCUACCGGGCACCGUAAAUGUCCGACUGGAGCCGUUCGGGCGGCUAUAAACAGACCUCAGGCCCGAAGCGUGGCGGCACCUGCCGCCGGUGGUAAAAAAGAUCGGAAGAGCACACGUCU, for which the “aptazyme ON/OFF ratio” value stood at 1.06.

GGGUCGAUCUUCGAUAAUCGCGUGGAUAUGGCACGCAAGUUUCUACCGGGCACCGUAAAUGUCCGACUGGAGCCGUUCGGGCGGCUAUAAACAGACCUCAGGCCCGAAGCGUGGCGGCACCUGCCGCCGGUGGUAAAAAAGAUCGGAAGAGCACACGUCU: the “aptazyme ON/OFF ratio” value worked out at 1.06.

Regarding GGGUCGCCUAUAAAUAAUCGCGUGGAUAUGGCACGCAAGUUUCUACCGGGCACCGUAAAUGUCCGACUGGAGCCGUUCGGGCGGCUAUAAACAGACCUCAGGCCCGAAGCGUGGCGGCACCUGCCGCCGGUGGUAAAAAAGAUCGGAAGAGCACACGUCU, the “aptazyme ON/OFF ratio” value is 1.2.

Regarding GGGUCGUGCAUUUAUAAUCGCGUGGAUAUGGCACGCAAGUUUCUACCGGGCACCGUAAAUGUCCGACUGGAGCCGUUCGGGCGGCUAUAAACAGACCUCAGGCCCGAAGCGUGGCGGCACCUGCCGCCGGUGGUAAAAAAGAUCGGAAGAGCACACGUCU, the “aptazyme ON/OFF ratio” value was determined as 1.07.

With GGGUCGUAUAACAAUAAUCGCGUGGAUAUGGCACGCAAGUUUCUACCGGGCACCGUAAAUGUCCGACUGGAGCCGUUCGGGCGGCUAUAAACAGACCUCAGGCCCGAAGCGUGGCGGCACCUGCCGCCGGUGGUAAAAAAGAUCGGAAGAGCACACGUCU, the “aptazyme ON/OFF ratio” value amounted to 1.29.

For GGGUCGCUCCAAUAUAAUCGCGUGGAUAUGGCACGCAAGUUUCUACCGGGCACCGUAAAUGUCCGACUGGAGCCGUUCGGGCGGCUAUAAACAGACCUCAGGCCCGAAGCGUGGCGGCACCUGCCGCCGGUGGUAAAAAAGAUCGGAAGAGCACACGUCU, the “aptazyme ON/OFF ratio” value came to 1.05.

As for GGGUCGCCGCCUUAUAAUCGCGUGGAUAUGGCACGCAAGUUUCUACCGGGCACCGUAAAUGUCCGACUGGAGCCGUUCGGGCGGCUAUAAACAGACCUCAGGCCCGAAGCGUGGCGGCACCUGCCGCCGGUGGUAAAAAAGAUCGGAAGAGCACACGUCU, the “aptazyme ON/OFF ratio” value amounted to 1.19.

Consider GGGUCGACCGGGUAUAAUCGCGUGGAUAUGGCACGCAAGUUUCUACCGGGCACCGUAAAUGUCCGACUGGAGCCGUUCGGGCGGCUAUAAACAGACCUCAGGCCCGAAGCGUGGCGGCACCUGCCGCCGGUGGUAAAAAAGAUCGGAAGAGCACACGUCU, for which the “aptazyme ON/OFF ratio” value stood at 1.05.

With GGGUCGCUCUGAUAUAAUCGCGUGGAUAUGGCACGCAAGUUUCUACCGGGCACCGUAAAUGUCCGACUGGAGCCGUUCGGGCGGCUAUAAACAGACCUCAGGCCCGAAGCGUGGCGGCACCUGCCGCCGGUGGUAAAAAAGAUCGGAAGAGCACACGUCU, the “aptazyme ON/OFF ratio” value was 1.07.

As to GGGUCGUGGUUACAUAAUCGCGUGGAUAUGGCACGCAAGUUUCUACCGGGCACCGUAAAUGUCCGACUGGAGCCGUUCGGGCGGCUAUAAACAGACCUCAGGCCCGAAGCGUGGCGGCACCUGCCGCCGGUGGUAAAAAAGAUCGGAAGAGCACACGUCU, the “aptazyme ON/OFF ratio” value stood at 1.69.

Consider GGGUCGCGGGGAAAUAAUCGCGUGGAUAUGGCACGCAAGUUUCUACCGGGCACCGUAAAUGUCCGACUGGAGCCGUUCGGGCGGCUAUAAACAGACCUCAGGCCCGAAGCGUGGCGGCACCUGCCGCCGGUGGUAAAAAAGAUCGGAAGAGCACACGUCU, for which the “aptazyme ON/OFF ratio” value worked out at 1.11.

Turning to GGGUCGACAGGGUAUAAUCGCGUGGAUAUGGCACGCAAGUUUCUACCGGGCACCGUAAAUGUCCGACUGGAGCCGUUCGGGCGGCUAUAAACAGACCUCAGGCCCGAAGCGUGGCGGCACCUGCCGCCGGUGGUAAAAAAGAUCGGAAGAGCACACGUCU, the “aptazyme ON/OFF ratio” value is 1.12.
